Target: CsgB-His (curli nucleator CsgB with C-terminal poly-histidine tag) (E. coli) (UniProt P0ABK7)
Sequence of UniProt P0ABK7 (P0ABK7 22-151): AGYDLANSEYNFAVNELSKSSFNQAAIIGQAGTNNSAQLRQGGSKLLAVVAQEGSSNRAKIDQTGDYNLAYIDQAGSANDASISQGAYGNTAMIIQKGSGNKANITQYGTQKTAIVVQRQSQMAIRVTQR

ThT assay: reduction of tau50 of R5 fibril formation in the presence of CB-origami: 1.5 h
Substance: CsgA R5 subunit domain peptide
